The record followed here is the supplement of paper PMC7125110.

B1: glmS ribozyme (parent)
chain: AUAAAAGCGCCAGAACUACAGAAAUGUAGUUGACGAGGAGGAGGUUUAUCGAAUUUUCGGCGGAUGCCUCCAAA

Common to all, as to settings: with glucosamine-6-phosphate
The variants in data set [1] derive from B1. Nature of the data set: self-cleavage kobs at 40 uM GlcN6P; higher = faster cleavage; RNA array. Put shortly: (§1)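 Sequenced MiSeq chips were the platform: E. coli RNA polymerase transcribed barcoded ribozyme variants on them in situ, and a hybridised Cy3 probe tracked these at 37 °C. After glucosamine-6-phosphate (40 μM to 10 mM) in HEPES/KCl/Mg(OAc)2 buffer was flowed in, tiles were imaged over ~14 h. Signals normalised to baseline and to non-cleaving reference variants were reduced to per-tile medians and fit to one- or two-exponential decays to obtain kobs. kcat and KM were derived through weighted Michaelis–Menten fits across concentrations.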

Variants of B1 are the subject of data set [2]. As to the kind of experiment: self-cleavage kobs at 160 uM GlcN6P; higher = faster cleavage; RNA array. In outline:
as §1

The variants in data set [3] derive from B1. Nature of the data set: self-cleavage kobs at 640 uM GlcN6P; higher = faster cleavage; RNA array. In outline: as §1
Data set [4] covers variants of B1. As to the kind of experiment: self-cleavage kobs at 2500 uM GlcN6P; higher = faster cleavage; RNA array. In outline:
as §1

Data set [5] covers variants of B1. Nature of the data set: self-cleavage kobs at 10000 uM GlcN6P; higher = faster cleavage; RNA array. In outline: as §1

± gives the standard error. Fewer inactive variants are shown than the library holds.

On to U31A U47G C70U, for which the “self-cleavage kobs at 40 uM GlcN6P” value in the data set with glucosamine-6-phosphate [1] came out at 0.000179 ± 3.9e-05 s⁻¹. Besides, the “self-cleavage kobs at 160 uM GlcN6P” value with glucosamine-6-phosphate [2] came to 0.000219 ± 4.3e-05 s⁻¹. For the same variant, the “self-cleavage kobs at 640 uM GlcN6P” value with glucosamine-6-phosphate [3] is 0.000928 ± 0.00014 s⁻¹. The “self-cleavage kobs at 2500 uM GlcN6P” value with glucosamine-6-phosphate [4] amounted to 0.000719 ± 0.00018 s⁻¹. Further, the “self-cleavage kobs at 10000 uM GlcN6P” value with glucosamine-6-phosphate [5] turned out to be 0.00277 ± 0.00063 s⁻¹.

In the case of C16U G44U U57A C68A, in the data set with glucosamine-6-phosphate [1], the “self-cleavage kobs at 40 uM GlcN6P” value is under 1e-05 s⁻¹. Also, in the data set with glucosamine-6-phosphate [2], the “self-cleavage kobs at 160 uM GlcN6P” value is under 1e-05 s⁻¹. Besides, the “self-cleavage kobs at 640 uM GlcN6P” value with glucosamine-6-phosphate [3] is under 1e-05 s⁻¹. In addition, the “self-cleavage kobs at 2500 uM GlcN6P” value in the data set with glucosamine-6-phosphate [4] was under 1e-05 s⁻¹. The “self-cleavage kobs at 10000 uM GlcN6P” value with glucosamine-6-phosphate [5] was under 1e-05 s⁻¹.

With G40C U69G, the “self-cleavage kobs at 40 uM GlcN6P” value with glucosamine-6-phosphate [1] is under 1e-05 s⁻¹. Besides, in the data set with glucosamine-6-phosphate [3], the “self-cleavage kobs at 640 uM GlcN6P” value was under 1e-05 s⁻¹. Moreover, the “self-cleavage kobs at 10000 uM GlcN6P” value in the data set with glucosamine-6-phosphate [5] is under 1e-05 s⁻¹.

Take G59U C61G A64G: the “self-cleavage kobs at 40 uM GlcN6P” value with glucosamine-6-phosphate [1] is under 1e-05 s⁻¹. Besides, the “self-cleavage kobs at 640 uM GlcN6P” value in the data set with glucosamine-6-phosphate [3] was under 1e-05 s⁻¹. Also, the “self-cleavage kobs at 2500 uM GlcN6P” value with glucosamine-6-phosphate [4] is under 1e-05 s⁻¹. Besides, in the data set with glucosamine-6-phosphate [5], the “self-cleavage kobs at 10000 uM GlcN6P” value is under 1e-05 s⁻¹.

As for C8U A14G C16U, in the data set with glucosamine-6-phosphate [1], the “self-cleavage kobs at 40 uM GlcN6P” value is under 1e-05 s⁻¹. The “self-cleavage kobs at 10000 uM GlcN6P” value in the data set with glucosamine-6-phosphate [5] was under 1e-05 s⁻¹.

For C11A G37C G60A, the “self-cleavage kobs at 40 uM GlcN6P” value in the data set with glucosamine-6-phosphate [1] was under 1e-05 s⁻¹.

Turning to A48G G51C, the “self-cleavage kobs at 40 uM GlcN6P” value with glucosamine-6-phosphate [1] is under 1e-05 s⁻¹. Further, the “self-cleavage kobs at 160 uM GlcN6P” value with glucosamine-6-phosphate [2] is under 1e-05 s⁻¹. Further, the “self-cleavage kobs at 2500 uM GlcN6P” value in the data set with glucosamine-6-phosphate [4] was under 1e-05 s⁻¹. Also, the “self-cleavage kobs at 10000 uM GlcN6P” value in the data set with glucosamine-6-phosphate [5] was under 1e-05 s⁻¹.

Regarding A6G C61G, the “self-cleavage kobs at 40 uM GlcN6P” value with glucosamine-6-phosphate [1] is under 1e-05 s⁻¹. The “self-cleavage kobs at 160 uM GlcN6P” value in the data set with glucosamine-6-phosphate [2] is under 1e-05 s⁻¹. In the data set with glucosamine-6-phosphate [3], the “self-cleavage kobs at 640 uM GlcN6P” value was under 1e-05 s⁻¹. Also, the “self-cleavage kobs at 2500 uM GlcN6P” value in the data set with glucosamine-6-phosphate [4] was under 1e-05 s⁻¹. In addition, the “self-cleavage kobs at 10000 uM GlcN6P” value with glucosamine-6-phosphate [5] was under 1e-05 s⁻¹.

Take A6U G35A: the “self-cleavage kobs at 40 uM GlcN6P” value with glucosamine-6-phosphate [1] was under 1e-05 s⁻¹. The “self-cleavage kobs at 160 uM GlcN6P” value with glucosamine-6-phosphate [2] is under 1e-05 s⁻¹. Further, the “self-cleavage kobs at 640 uM GlcN6P” value in the data set with glucosamine-6-phosphate [3] was under 1e-05 s⁻¹.

On to A36U G59U, for which the “self-cleavage kobs at 40 uM GlcN6P” value in the data set with glucosamine-6-phosphate [1] was under 1e-05 s⁻¹. Further, the “self-cleavage kobs at 640 uM GlcN6P” value with glucosamine-6-phosphate [3] is under 1e-05 s⁻¹. In addition, the “self-cleavage kobs at 10000 uM GlcN6P” value in the data set with glucosamine-6-phosphate [5] was under 1e-05 s⁻¹.

For G13A G43U, the “self-cleavage kobs at 40 uM GlcN6P” value with glucosamine-6-phosphate [1] was under 1e-05 s⁻¹. The “self-cleavage kobs at 160 uM GlcN6P” value with glucosamine-6-phosphate [2] is under 1e-05 s⁻¹. For the same variant, the “self-cleavage kobs at 640 uM GlcN6P” value with glucosamine-6-phosphate [3] is under 1e-05 s⁻¹.

With A36G C58U, the “self-cleavage kobs at 40 uM GlcN6P” value with glucosamine-6-phosphate [1] is under 1e-05 s⁻¹. Besides, the “self-cleavage kobs at 640 uM GlcN6P” value with glucosamine-6-phosphate [3] is under 1e-05 s⁻¹. Also, the “self-cleavage kobs at 2500 uM GlcN6P” value with glucosamine-6-phosphate [4] was under 1e-05 s⁻¹. The “self-cleavage kobs at 10000 uM GlcN6P” value in the data set with glucosamine-6-phosphate [5] is under 1e-05 s⁻¹.

As for G13A G44U C50G C71U, the “self-cleavage kobs at 40 uM GlcN6P” value in the data set with glucosamine-6-phosphate [1] was under 1e-05 s⁻¹. For the same variant, the “self-cleavage kobs at 640 uM GlcN6P” value with glucosamine-6-phosphate [3] was under 1e-05 s⁻¹.

G40U G41C A48U: the “self-cleavage kobs at 40 uM GlcN6P” value with glucosamine-6-phosphate [1] is under 1e-05 s⁻¹.

Consider G43C U56C, for which the “self-cleavage kobs at 40 uM GlcN6P” value with glucosamine-6-phosphate [1] is under 1e-05 s⁻¹. In addition, in the data set with glucosamine-6-phosphate [2], the “self-cleavage kobs at 160 uM GlcN6P” value was under 1e-05 s⁻¹. In addition, the “self-cleavage kobs at 640 uM GlcN6P” value with glucosamine-6-phosphate [3] is under 1e-05 s⁻¹. Also, in the data set with glucosamine-6-phosphate [5], the “self-cleavage kobs at 10000 uM GlcN6P” value is under 1e-05 s⁻¹.

Regarding C8A G37C U69G C71G, the “self-cleavage kobs at 40 uM GlcN6P” value in the data set with glucosamine-6-phosphate [1] was determined as 0.000455 ± 0.00017 s⁻¹.

As for G59U G62U C71U, the “self-cleavage kobs at 40 uM GlcN6P” value with glucosamine-6-phosphate [1] is under 1e-05 s⁻¹.

As for G13A G38U C50G A64G, the “self-cleavage kobs at 40 uM GlcN6P” value in the data set with glucosamine-6-phosphate [1] was determined as 6.47e-05 ± 2.4e-05 s⁻¹. Further, in the data set with glucosamine-6-phosphate [3], the “self-cleavage kobs at 640 uM GlcN6P” value amounted to 0.00011 ± 5.2e-05 s⁻¹.

For the variant U47A C71U, in the data set with glucosamine-6-phosphate [1], the “self-cleavage kobs at 40 uM GlcN6P” value was determined as 0.000701 ± 8.3e-05 s⁻¹. Moreover, in the data set with glucosamine-6-phosphate [2], the “self-cleavage kobs at 160 uM GlcN6P” value turned out to be 0.0018 ± 0.0003 s⁻¹. Further, in the data set with glucosamine-6-phosphate [3], the “self-cleavage kobs at 640 uM GlcN6P” value came out at 0.00323 ± 0.00057 s⁻¹. Also, in the data set with glucosamine-6-phosphate [4], the “self-cleavage kobs at 2500 uM GlcN6P” value turned out to be 0.00535 ± 0.001 s⁻¹. The “self-cleavage kobs at 10000 uM GlcN6P” value with glucosamine-6-phosphate [5] is 0.0342 ± 0.0081 s⁻¹.

Consider U31A U45C A48U, for which, in the data set with glucosamine-6-phosphate [1], the “self-cleavage kobs at 40 uM GlcN6P” value is under 1e-05 s⁻¹. Further, the “self-cleavage kobs at 640 uM GlcN6P” value with glucosamine-6-phosphate [3] is under 1e-05 s⁻¹.

As for C10U G37U, in the data set with glucosamine-6-phosphate [1], the “self-cleavage kobs at 40 uM GlcN6P” value is under 1e-05 s⁻¹. In addition, the “self-cleavage kobs at 640 uM GlcN6P” value in the data set with glucosamine-6-phosphate [3] was under 1e-05 s⁻¹. The “self-cleavage kobs at 10000 uM GlcN6P” value in the data set with glucosamine-6-phosphate [5] is under 1e-05 s⁻¹.
